Measured values from the supplement of paper PMC7877785.
± gives the uncertainty stated by the source.

Assay: self-splicing fitness, log relative to wild type (ln ratio); higher = more splicing; Tetrahymena group I intron in knt gene, E. coli kanamycin selection, DiMSum; sequences stand for … in CUCUCU…GGAGGGAAAAGUUAUCAGGCAUGCACCUGGUAGCUAGUCUUUAAACCAAUAGAUUGCAUCGGUUUAAAAGGCAAGACCGUCAAAUUGCGGGAAAGGGGUCAACAGCCGUUCAGUACCAAGUCUCAGGGGAAACUUUGAGAUGGCCUUGCAAAGGGUAUGGUAAUAAGCUGACGGACAUGGUCCUAACCACGCAGCCAAGUCCUAAGUCAACAGAUCUUCUGUUGAUAUGGAUGCAGUUCACAGACUAAAUGUCGGUCGGGGAAGAUGUAUUCUUCUCAUAAGAUAUAGUCGGACCUCUCCUUAAUGGGAGCUAGCGGAUGAAGUGAUGCAACACUGGAGCCGCUGGGAACUAAUUUGUAUGCGAAAGUAUAUUGAUUAGUUUUGGAGUACUCGUGGUCG
Procedure, shortened: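 A randomised library covering all eight P1ex-region intron nucleotides was built with the intron in the knt kanamycin-resistance gene on pET-22b(+) and held in E. coli BL21(DE3). Cells were grown overnight at 37°C or 30°C on LB agar, with or without 25 μg/mL kanamycin, plus 100 μg/mL carbenicillin, 50 μM IPTG and 0.2% rhamnose, and pooled colonies were amplicon-sequenced on an Illumina HiSeq 2500. DiMSum fitness is the error-weighted combination of wild-type-normalised replicate fold changes, kanamycin versus none.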

Sequence | self-splicing fitness (ln) (30 °C) | self-splicing fitness (ln) (37 °C)
CUUUAGCAAUAUUACGGUCG | -0.496 ± 0.055 | -0.259 ± 0.083
CAACAGCAAUAUUACGCCAG | -1.4 ± 0.11 | -0.809 ± 0.14
UGGAAGCAAUAUUACGGUGG | -1.42 ± 0.091 | -0.276 ± 0.11
AACAAGCAAUAUUACGAAGC | -3.15 ± 0.27 | -2.83 ± 0.38
AAAAAGCAAUAUUACGGCCU | -0.199 ± 0.069 | 0.253 ± 0.095
CGUGAGCAAUAUUACGAUCG | -3.02 ± 0.27 | 0.475 ± 0.25
UCAUAGCAAUAUUACGAACU | -2.36 ± 0.33 | -2.08 ± 0.26
AUCUAGCAAUAUUACGACAA | -1.76 ± 0.23 | 0.296 ± 0.19
AAUAAGCAAUAUUACGUCUC | -1.68 ± 0.11 | -0.799 ± 0.13
CGGUAGCAAUAUUACGCUCG |  | -2.91 ± 0.43
UCGAAGCAAUAUUACGCGAA | -2.42 ± 0.17 | -0.19 ± 0.13
GUGCAGCAAUAUUACGACGU | -0.779 ± 0.11 | 0.0794 ± 0.13
GCGGAGCAAUAUUACGCUUA |  | 1.64 ± 0.37
GGGAAGCAAUAUUACGGGGU |  | -2.7 ± 0.34
CCGAAGCAAUAUUACGGUUG | -1.84 ± 0.059 | -0.955 ± 0.072
AAUCAGCAAUAUUACGACUU | 0.234 ± 0.068 | 0.142 ± 0.083
AACUAGCAAUAUUACGUCCC | -0.0622 ± 0.15 | 0.182 ± 0.16
UUAAAGCAAUAUUACGUCAA | -0.222 ± 0.082 | -0.107 ± 0.095
UGUAAGCAAUAUUACGCUUG | -4.2 ± 0.42 | -1.99 ± 0.21
UGAGAGCAAUAUUACGCACG | -2.77 ± 0.19 | -0.671 ± 0.2
CGCAAGCAAUAUUACGUCGC | -2.24 ± 0.19 | -3.19 ± 0.29
UUUUAGCAAUAUUACGAAAU | -2.34 ± 0.34 | -1.72 ± 0.27
UCAAAGCAAUAUUACGCACA | -0.843 ± 0.079 | -0.191 ± 0.082
CAUAAGCAAUAUUACGAUCU | -2.67 ± 0.23 | -1.85 ± 0.24
CGACAGCAAUAUUACGGAUA | -2.09 ± 0.14 | -1.91 ± 0.15

Sequence | self-splicing fitness (ln) (30 °C) | self-splicing fitness (ln) (37 °C)
CGAGAGCAAUAUUACGUCUG | -1.33 ± 0.24 | -1.31 ± 0.17
GGGUAGCAAUAUUACGUAGA | -1.89 ± 0.17 | -0.619 ± 0.15
GUUUAGCAAUAUUACGGCAC | -0.0568 ± 0.4 | -0.227 ± 0.43
GUACAGCAAUAUUACGCAUC | -3.74 ± 0.23 | -1.36 ± 0.19
CUCGAGCAAUAUUACGUGCU | -2.36 ± 0.24 | 
CCCCAGCAAUAUUACGCCUC | -3.25 ± 0.21 | -1.6 ± 0.21
GUGUAGCAAUAUUACGUCGC | -2.48 ± 0.26 | 
GUCCAGCAAUAUUACGGUAG | -2.08 ± 0.083 | -1.61 ± 0.096
GUCGAGCAAUAUUACGAUUC | -1.64 ± 0.24 | -0.941 ± 0.26
UUCCAGCAAUAUUACGUGCU | -4.4 ± 0.34 | -3.29 ± 0.29
ACCGAGCAAUAUUACGACAU | -2.219 ± 0.015 | -1.3 ± 0.033
GAGCAGCAAUAUUACGUGCU | -3.11 ± 0.2 | -2.2 ± 0.23
GCGUAGCAAUAUUACGUAUU | -2.67 ± 0.12 | -2.11 ± 0.19
UGUCAGCAAUAUUACGUGGU | -4.15 ± 0.18 | -1.96 ± 0.11
GUCCAGCAAUAUUACGUCGU | -0.0754 ± 0.066 | -0.486 ± 0.088
CAGCAGCAAUAUUACGGAUA | -3.18 ± 0.24 | -2.41 ± 0.17
CAUAAGCAAUAUUACGAGGC | -3.54 ± 0.35 | -2.24 ± 0.35
GUUGAGCAAUAUUACGACCC |  | -0.607 ± 0.49
UUUAAGCAAUAUUACGGCUU | -1.8 ± 0.14 | -1.86 ± 0.27
AUAGAGCAAUAUUACGACCA | -2.34 ± 0.18 | -1.49 ± 0.27
GGUCAGCAAUAUUACGCGAG | -1.93 ± 0.13 | -0.499 ± 0.13
GCUUAGCAAUAUUACGUUAA |  | -2.84 ± 0.29
AAUUAGCAAUAUUACGUACG | -1.75 ± 0.11 | -0.862 ± 0.12
CGCAAGCAAUAUUACGUAAA | -3.18 ± 0.14 | -2.12 ± 0.18
CUGUAGCAAUAUUACGAGGC | -3.31 ± 0.37 | -3.04 ± 0.32
